Here are results for 40 sequences from the nanobody polyreactivity screen of Harvey et al. (2022).

The series can be described thus: yeast display, Sf9 membrane polyspecificity reagent, FACS + sequencing; frameworks hold sequencing errors. In a few lines: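 Using colony PCR, genes from sorted yeast display clones were amplified, then sequenced on MiSeq at 2 × 250 and filtered by CDR length. The clones had been stained with 10% biotinylated, detergent-solubilized Sf9 membrane reagent for 1 hour at 4 °C and sorted by FACS into low and high (top ~1%) gates on anti-HA and streptavidin fluorescence. Polyreactivity labels come from the gate of origin.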
On to “QVQLVESGGGLVQAGGRLRLSCAASGFIYENAMGWYRQAPGKERELVAAISYSGGCTYYADSVKGRFTISRDNAKNTVYLQMNSLKPEDTAVYVCAADTQGYDYDYWGQGTQVTVSS”, for which the “polyreactivity (PSR sort gate)” value is given as “low polyreactivity”.
Take “QVQLVESGGGLVQAGGRLRLSCAASGFNFRYYAMGWYRQAPGKERELVAASSRSGGGTYYADSVKGRFTISRDTAQNTVYLQMNSLTPEDTAVYYCAADPSLGRGYDYWGQGTQVTVSS”: the “polyreactivity (PSR sort gate)” value is “high polyreactivity”.
Turning to “QVQLVESGGGLVQAGGRLRLSCAASGFTFGYYTMGWYRQAPGKESELVASISRTGGRTYADSVKGRFTISRDNAKNTVFLQMNSLKPEDTAVYYCNRKKYFSYPSDYGYGYWGQGTQVTVSS”, the “polyreactivity (PSR sort gate)” value was “high polyreactivity”.
Take “QVQLVESGGGLVQAGGRLRLSCAASGFTFRYYALGWYRQAPGKERELVAAISAGGGSTYYADSVKGRFTISRDNAKNNVYLQMHSQKPDDTAVYYCASAGARPGYDYWGQCTQVTVSS”: the “polyreactivity (PSR sort gate)” value is on record as “high polyreactivity”.
The result for “QVQLVESGGGLVQAGGRLRLSCAASGFTFSGYGMGWSRQAPGKERELVAAISNSGGRTYADSVKGRFTISRDTAQKTVYLQMNSLKPEDTAVYSCAKKPGGFSQASRVDYDYWGQGTQVTVSS” reads “low polyreactivity”.
For the sequence “QVQLVESGGGLVQAGGRLRLSCAASGFTFYRYPMGWYRQAPGTERELVAAITWSGGSTYYADSVKGRFTISRDTAMNTVYLQMNSLKPEDTAVYYCAADIYDGGFDYWGQGTQVTVSS”, the “polyreactivity (PSR sort gate)” value is “low polyreactivity”.
To “QVQLVESGGGLVQAGGRLRLSCAASGFTFYVNAMGWYRQAPGKERELVAAIRGSGGSTYYADSVKGRFTISRVNAKITVYLQMNSLKPEDTAVYYCAKGKARSAQGSSRAYNYWGQGTQVTVSS” belongs “high polyreactivity”.
The result for “QVQLVESGGGLVQAGGRLRLSCAASGFTLDRYAMGWYRQAPGKERELVAAITQSGVSTYYADSVKGLFTISRDNAKNTVYLQKNSLKPEETAVYYCNALLRRTYYRYTWGYGYWGQGTQVTVSS” reads “high polyreactivity”; that for “QVQLVESGGGLVQAGGRLRLSCAASGIIFSFYTMGWYIQAPGKERELVAAITWSGGSTYYADSVKGRFTISRDNAKNTVYFQMNSLKPEDTSVYYCNARNPWSKRSQGYSWGQGTQVTVSS”, “low polyreactivity”; that for “QVQLVESGGGLVQAGGRLRLSCAASGIIRGSYAMGWYRQAPGKERELVAGINSGGGTYYADSVKGRFTISRDNAKNTVYLQMNSLKPEDTAVYYCNARKSSGLSSYDWYSWEYGYWGQGTQVTVSS”, “low polyreactivity”.
On to “QVQLVESGGGLVQAGGRLRLSCAASGIISRFYAMGWYRQAPGKERELVARISGSGGSTYYADSVKGRFTISRDNAKTTVYLQMNSLKPEDTAVYYFNAKSYRYFGVRRFNYWGQGTQVTVSS”, for which the “polyreactivity (PSR sort gate)” value was “high polyreactivity”.
The result for “QVQLVESGGGLVQAGGRLRLSCAASGIRSYRNGMGWYRQAPGKERELVASISKRADSTYYADSVKGRFTISRDNAKITVYLQMNSLKPEETAVYYCYVVSKVIRGLSGDGYWGQGTQGTVSS” reads “high polyreactivity”; that for “QVQLVESGGGLVQAGGRLRLSCAASGITCYRYVMGWYRQAPGKERELVAAITSRGGSTSYADSVKGRFTISRDNAQNTVYLQMNSLKPEDTAVYYCAAVYRRDYDYWGQGTQVTVSS”, “high polyreactivity”; that for “QVQLVESGGGLVQAGGRLRLSCAASGITFNSYAMGWYRQAPGKERELVAAITLTGGTTYYADSVKGRFTISRDNAKNTVYLQKNSLKPEDTAVYYCAAQYWWWSRFEYDSWGQGTQVTVSS”, “low polyreactivity”.
With “QVQLVESGGGLVQAGGRLRLSCAASGITLRRNALVWYRQAPGKERELVARITWRGSTYYAESVKGRFTISRDNAKNTVYLQMNSLKPADTAVYYCAADYRSWQPPTKLPPGASDYWGQGTQVTVSS”, the “polyreactivity (PSR sort gate)” value is listed as “low polyreactivity”.
To “QVQLVESGGGLVQAGGRLRLSCAASGLIFDSYAMGWYRQAPGKERELVAAITYTGGSTYYADSVKGRFTISRDNAKNTVYLQMNSLKPEDTAVYYCAARSQSDRYGYWGQGTQVTVSS” belongs “high polyreactivity”.
With “QVQLVESGGGLVQAGGRLRLSCAASGLTFDGYAMGWYRQAPGKERELVAAISWSGNTYYADSVKGRFKISRDNAKNTVYLQMNSLKPEDTAVYYCAVKYYHYGSWGQGTQVTVSS”, the “polyreactivity (PSR sort gate)” value is given as “high polyreactivity”.
To “QVQLVESGGGLVQAGGRLRLSCAASGLTLQRYTKGWYRQAPGTERELVAAISRSGGGTYYADSVKGRFTISRDNAKNTVYLEMNSLKPEDTAVYYCAAGWYVYRPSRGYGYWGQGTQVTVSS” belongs “high polyreactivity”; to “QVQLVESGGGLVQAGGRLRLSCAASGNIFLDYTLGWYRQAPGKERELVAAISRGGSTYYADSVKGRFTISRDNAKNTVYLQMNSLKPEDTAVYYCNARCWEYFAHNYWGQGTQVTVSS”, “low polyreactivity”.
The result for “QVQLVESGGGLVQAGGRLRLSCAASGNIFYYYAMGWYRQAPGKERELVADIRSSGRTNYADSVKGRFTISRDNATNTVYLQMNSLKPADTAVYYCATDKWYSYADKYDYWGQGTQVTVSS” reads “low polyreactivity”; that for “QVQLVESGGGLVQAGGRLRLSCAASGRIFAEYAMGWYRQAPGKVRELVAAISRRGGRPYYADSVKGRFTISRDNAKKPVYLQMNSLTPDDTAVYYCAADHGDPGGYDYWGQGTQVTVSS”, “high polyreactivity”; that for “QVQLVESGGGLVQAGGRLRLSCAASGRIFDLNAMGWYRQAPGKERELVADINSGGSTYYADSVKGRFTISRDNAKNTVYLQMNSLKPEDTAVYYCDVRRNQHVVQMYYWGQGTQVTVSS”, “low polyreactivity”.
To “QVQLVESGGGLVQAGGRLRLSCAASGRIFGKNVMGWYRQAPGKERELVAAISSGGSTYADSVKGRFTISRDNAKNTFYLQMNSLKPEDTAVYYCNTRPRLYGYRPSQYTYDYWGQGTQVTVSS” belongs “high polyreactivity”; to “QVQLVESGGGLVQAGGRLRLSCAASGRIFGRYAMGWYRQAPGKERELVAAITWTGGTTYYADSVKGRFTISRDNAKNTVYLQMNSLKPEDTAVYYCAARQGYGIYGDYYYWGQGTQVTVSS”, “high polyreactivity”; to “QVQLVESGGGLVQAGGRLRLSCAASGRIFTPNPMGWYRQAPGKERELVAAITTSAGRTYYADSVKGRFSISRDNAKNTVYLQMNSLKPEDTAVYYCAARYFPIRGYSWGQGSQVTVSS”, “high polyreactivity”.
Take “QVQLVESGGGLVQAGGRLRLSCAASGRIFYTNYMGWYRHAPGKERELVAAIRSVSTYYADSVKGRFTISRDNAKNTVYLHMNSLNPEDTAVYYCNALRTNRYDYWGQGTQVTVSS”: the “polyreactivity (PSR sort gate)” value is “high polyreactivity”.
The result for “QVQLVESGGGLVQAGGRLRLSCAASGRIFYTYTMGWYRQAPGKERELVATITDGTRTNYADSVKVRFTISRDNAKITVYLQMNSLKHEDTAVYYCNAAGRWHDLYRINYDYWGQGTQVTVSS” reads “low polyreactivity”; that for “QVQLVESGGGLVQAGGRLRLSCAASGRIISHYAMGWYRQAPGKEWELVAAISRSGGSTYYADSVKGRFTLSRDNAKNTVYLQMNSLKPEDTAVYYCAARSWPNIRCHDYWGQGTQVTVSS”, “high polyreactivity”.
As to “QVQLVESGGGLVQAGGRLRLSCAASGRIYGLYAMGWYRQAPGKERELVAAITLSGDGTDYADSVKGRFTISRDNAKNTVYLQMTSLKPDDTAVYYCAKVGQYWWNMDYWGQGTQVTVSS”, the “polyreactivity (PSR sort gate)” value is recorded as “low polyreactivity”.
Turning to “QVQLVESGGGLVQAGGRLRLSCAASGRTFIANVMGWYIQAPGKERELVAAITSGGGTSYADSVKGRFTISRDNAKNTVYLQMNSLKPEDTAVYYCNADGYLAERFVIRLDEYRDYDYWGQGTQVTVSS”, the “polyreactivity (PSR sort gate)” value is reported as “low polyreactivity”.
With “QVQLVESGGGLVQAGGRLRLSCAASGRTFIGYAMGWSRQAPGKERELVAAISSTGGSTYYADSVKGRFTISRDNAKNTVYLQMNSLKPEDTAVYYCATDADRPPRTPDISYVSNFDYWGQGTQVTVSS”, the “polyreactivity (PSR sort gate)” value is “low polyreactivity”.
As for “QVQLVESGGGLVQAGGRLRLSCAASGRTFRKYTMGWYRQAPGKEREFDAAITYSGGSTYYADSVKGRFTISRDNAKNTVYLQMNSLKPEDTAVYYCVTRGGYYLYYSYYYWGQGTQVTVSS”, the “polyreactivity (PSR sort gate)” value is given as “high polyreactivity”.
To “QVQLVESGGGLVQAGGRLRLSCAASGRTFRLYAMGWYRQAPGKERELVAAINYSDGSTYYADSVKGRFTISRDIAKNTVYLQMNSLKPEDSAVSYCAADLQSGYTIPTSIVEYHPFDYWGQGTQVTVSS” belongs “low polyreactivity”.
To “QVQLVESGGGLVQAGGRLRLSCAASGRTFTPYTMGWYIKAPGKEREFVAAIRTGGNTYYADSVKGRFTISRDNAKNTVYLQMNSLKPEDTAVFYCAARDRIGYRLYYWGQGTQVTVSS” belongs “high polyreactivity”.
The result for “QVQLVESGGGLVQAGGRLRLSCAASGRTFYKNARGWYREAPGKERELVAAITNRGGSTYYADSVKGRFTISRDNAKNTVYLQMNSLKPEDTAVYYCNARRGSTGNVARWHYDYWGQGTQVTVSS” reads “low polyreactivity”; that for “QVQLVESGGGLVQAGGRLRLSCAASGRTFYTNTMGWYRQAPGKERELVAAISYSGSSTYYADSVKGRFTISRDNAKNTGYLQINSLKPEDTAVYYCNAVRYYRYYYWGQGTQVTVSS”, “low polyreactivity”.
Consider “QVQLVESGGGLVQAGGRLRLSCAASGRTFYYNAMGWYREAPGKERELVATIGGSTYYADSVKGRFTISRDNAKNTVYLQMNSLIPEDTAVYYCAASRYSHYPRYRLTCFYYWGQGTQVTVSS”, for which the “polyreactivity (PSR sort gate)” value is “high polyreactivity”.
In the case of “QVQLVESGGGLVQAGGRLRLSCAASGRTFYYYPMGWYRQAPGKERELVAAISWSGGSTYYADSVKGRCTISRDNAKNTVYLQLNSLKPDDTAVNYCNAVGSKGYRMDYWGQGTQVTVSA”, the “polyreactivity (PSR sort gate)” value is on record as “high polyreactivity”.
To “QVQLVESGGGLVQAGGRLRLSCAASGRTIVRYVIGWYRQAPGKERELVARISFSSGSTYYADSVKGRFTISRDNAKNTVYVQMNSLIPEDTAVYYCAASPDVSFRRFSRVVSGDYWGQGTKVTVSS” belongs “high polyreactivity”.
To “QVQLVESGGGLVQAGGRLRLSCAASGRTLFYYARGWYRQEPGKEREFVPAITWSGVSTSYADSVKGRFTISRDNAKNTVYLQLNSLKPEDTAVYYCAARGYRPRLGKWLDYNYWGQGTQVTVSS” belongs “high polyreactivity”.
